Values quoted from earlier work in PMC3428507.

Target: Pf1 MBD (Homo sapiens) (UniProt Q96QT6)
Sequence (Q96QT6 200-241): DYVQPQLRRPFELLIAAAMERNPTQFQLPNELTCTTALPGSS

Chain of MRG15 MRG (Q9UBU8 188-362): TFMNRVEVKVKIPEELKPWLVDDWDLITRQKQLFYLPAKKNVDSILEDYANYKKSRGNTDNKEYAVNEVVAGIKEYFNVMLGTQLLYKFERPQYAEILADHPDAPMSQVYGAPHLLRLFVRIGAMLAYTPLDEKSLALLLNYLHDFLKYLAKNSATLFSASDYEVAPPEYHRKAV

MRG15 MRG (from UniProt Q9UBU8)
Kd: 0.015 µM
